Measurements published in patent publication US20230183336A1 (MODMAB THERAPEUTICS, published 2023).

Molecular target: T1, recombinant human LRP6-Fc chimera (human, UniProt O75581 20-1370)
T1 construct: extracellular domain; also called ECD of human LRP6; not shown: Fc part of the chimera
T1 sequence (looked up): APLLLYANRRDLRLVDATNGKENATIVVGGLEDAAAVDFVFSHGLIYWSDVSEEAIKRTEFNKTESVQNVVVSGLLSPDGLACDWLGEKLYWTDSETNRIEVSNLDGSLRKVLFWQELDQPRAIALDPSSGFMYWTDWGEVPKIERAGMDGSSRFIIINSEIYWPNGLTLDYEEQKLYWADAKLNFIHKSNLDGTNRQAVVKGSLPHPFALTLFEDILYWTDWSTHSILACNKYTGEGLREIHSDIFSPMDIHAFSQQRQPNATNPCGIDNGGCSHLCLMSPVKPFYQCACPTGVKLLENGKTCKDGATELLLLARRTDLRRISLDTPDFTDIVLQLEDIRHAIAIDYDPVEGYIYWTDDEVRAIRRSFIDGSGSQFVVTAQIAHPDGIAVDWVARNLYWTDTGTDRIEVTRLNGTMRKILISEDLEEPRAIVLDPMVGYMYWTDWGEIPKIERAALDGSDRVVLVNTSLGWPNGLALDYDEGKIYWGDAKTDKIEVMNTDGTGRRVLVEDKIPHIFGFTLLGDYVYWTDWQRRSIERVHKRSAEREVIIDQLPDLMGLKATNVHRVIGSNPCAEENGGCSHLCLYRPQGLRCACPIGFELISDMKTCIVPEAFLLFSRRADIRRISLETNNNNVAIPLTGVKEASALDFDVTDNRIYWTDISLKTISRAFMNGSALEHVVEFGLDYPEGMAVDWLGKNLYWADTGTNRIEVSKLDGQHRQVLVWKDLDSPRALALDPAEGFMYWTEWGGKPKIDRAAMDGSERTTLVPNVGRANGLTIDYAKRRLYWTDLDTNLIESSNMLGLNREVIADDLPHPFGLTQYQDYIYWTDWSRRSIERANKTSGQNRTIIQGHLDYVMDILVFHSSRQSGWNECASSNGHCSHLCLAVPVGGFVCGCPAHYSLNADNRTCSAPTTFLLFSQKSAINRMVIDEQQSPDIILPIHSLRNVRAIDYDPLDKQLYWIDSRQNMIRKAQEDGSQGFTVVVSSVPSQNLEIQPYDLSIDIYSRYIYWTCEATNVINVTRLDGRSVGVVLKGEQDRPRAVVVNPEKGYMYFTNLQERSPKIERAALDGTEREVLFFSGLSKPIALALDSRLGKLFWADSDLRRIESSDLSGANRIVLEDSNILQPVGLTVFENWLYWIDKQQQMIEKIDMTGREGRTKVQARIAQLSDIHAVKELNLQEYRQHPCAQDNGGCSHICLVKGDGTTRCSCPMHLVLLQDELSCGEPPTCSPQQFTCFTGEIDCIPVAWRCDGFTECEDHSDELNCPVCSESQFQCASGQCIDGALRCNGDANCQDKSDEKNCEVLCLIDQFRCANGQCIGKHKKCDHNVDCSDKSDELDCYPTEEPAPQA
Assay: multipoint competitive ELISA, IgG1; varied competitor printed as recombinant human LRP6-Fc chimera, while paragraph 283 says 'the recombinant antigen'
From the text: The full length IgG1s and the antibody fragments (Fabs) were purified and a single-point ELISA was done to determine the specificity of the antibodies. […] A multipoint competitive ELISA was used to determine the relative affinities of the antibodies to the recombinant antigen.
Table 3 reports the IC50 of LRP5 antibodies as determined by competitive ELISA. The log of the recombinant human LRP6-Fc chimera concentration (x-axis) was plotted against the OD450 reading of the antibody (y-axis). The IC50 was determined by non-linear regression analysis.

B1: LRP5-H5 (antibody, V domains shown)
VH: EVQLVESGGGLVQPGGSLRLSCAASGFNLSYSSIHWVRQAPGKGLEWVASISSSYGSTSYADSVKGRFTISADTSKNTAYLQMNSLRAEDTAVYYCARGYWAIDYWGQGTLVTVSS
VL: DIQMTQSPSSLSASVGDRVTITCRASQSVSSAVAWYQQKPGKAPKLLIYSASSLYSGVPSRFSGSRSGTDFTLTISSLQPEDFATYYCQQPVGHYGYPITFGQGTKVEIKR
notes: Fab-phage in the screen
In the case of B1, the IC50 is reported as 4.44 nM.
